{"source": "patent US20200164083A1", "about": "(priority 2016, published 2020)", "key": {"[1]": {"details": "rat, in vivo", "procedure": "The content of each syringe was administered SC in the flank of six cannulated male Sprague Dawley rats (average weight 270 g).\n(§1) Serum samples were treated with 3 vol of ACN and centrifuged. The supernatant was dried, reconstituted and applied to a HPLC MS/MS system. The sample was eluted by a water/ACN gradient containing 0.1% formic acid. […] HPLC-MS/MS analyses were carried out on a Sciex 5500 QTrap® mass spectrometer coupled with a Shimadzu HPLC system. The Shimadzu HPLC system consisted of two LC-30AD HPLC pumps and a SIL-30AC autosampler with a 100-μL loop installed. […] The mass spectrometer was operated in positive electrospray ionization mode and the resolution setting used was the unit for both Q1 and Q3. […] Peak-area integrations were performed using Analyst software (version 1.5.2) from Sciex.\n(§2) C vs. t curves (text) were analyzed using GraphPad Prism by non-linear regression of eq X (text) with weighting by 1/SD2; since ka>>k1 we modeled the single exponential phase of the terminal half-life using data points later than the first few days."}, "[2]": {"details": "mouse, in vivo", "procedure": "B. The small amounts of microspheres needed in the mouse required a diluent to allow accurate dosing. […] This diluent served to keep the microspheres in a homogeneous suspension prior to and during administration and allowed dosing of convenient volumes. […] Syringes (0.5 mL U-100 insulin syringe with fixed 29 g×½″ needle, BD) were filled with the suspended microspheres under aseptic conditions. The needle assembly of each syringe was purged of air and weighed prior to and following dosing to determine the average mass of slurry delivered to each mouse.\nSerum was prepared and frozen at −80° C. until analysis.\nas §1, §2"}, "[3]": {"test_system": "Zucker diabetic fatty rats", "test": "Chronic glucoregulatory effects in diabetic ZDF rats", "assay_type": "in vivo", "details": "single s.c. dose", "method": "A total of 55 male Zucker diabetic fatty rats (ZDF-Lepr^fa/Crl) 6 weeks of age, and 180-200 gram (Charles River, USA) were single-housed and blood glucose and body weight were monitored bi-weekly for 2-4 weeks. Based on morning-fed blood glucose, outliers were excluded and 40 diabetic rats (average weight 340 g, blood glucose 9.7 to 22.5 mM, average 16.2 mM) were stratified into 4 groups of n=10. […]\nBody-weights were monitored daily from day −3 throughout the study. Food and water intake were monitored on day −3 and daily for the first 11 days after the first dose then bi-weekly for the rest of the study period. Blood sampling was performed for pharmacokinetic studies 2 days after the first dose and then once weekly. HbA1c was measured day −3, and days 26 and 55 before OGTT, and the gastric emptying test was performed on day 26. For the OGTT, rats were semi-fasted overnight (60%) then PO glucose (2 g/kg in 10 mL) was administered at t=0. Blood glucose and insulin were measured at t=−60, −15, 0, 15, 30, 60 and 120 minutes after the glucose challenge. Gastric emptying was measured by administration of acetaminophen (100 mg/kg) with the OGTT on day 26, and blood levels were measured at 15, 30, 60 and 120 min."}, "[4]": {"details": "pH 9.4"}, "[5]": {"details": "rat, in vivo, sc", "procedure": "Each syringe contained 0.45 or 0.98 μmol peptide at 1.9 μmol peptide g^−1 slurry. The syringes were weighed prior to and after dosing to verify the mass delivered to each rat. Blood samples (300 μL) were drawn and the serum was frozen at −80° C. until analysis.\nFrozen serum samples were thawed on ice and diluted between 5 and 20-fold in the provided rat serum. […] Data replicates were averaged and fitted to appropriate pharmacokinetic models."}}, "note": "Read-outs that look alike come from different tables or passages of the source.", "data": [{"substance": "hydrogel-[N28Q]exenatide microspheres R^1=CN: PEG hydrogel microspheres coupled with Nα-[1-cyano-7-azido-2-heptyloxycarbonyl]-[N28Q]exenatide", "values": [{"measurement": "AUCinf", "setting": "[1]", "value": "448 ± 91", "unit": "nM-hr"}, {"measurement": "Cmax", "setting": "[1]", "value": 0.36, "unit": "nM"}, {"measurement": "Dose adjusted: Cmax, 0", "setting": "[1]", "value": "0.17 nM/(μmol/kg)"}, {"measurement": "k × 10^4 ± SE", "setting": "[1]", "value": "7.8 ± 1.3", "unit": "h^−1"}, {"measurement": "t1/2", "setting": "[1]", "value": 36.8, "unit": "days"}, {"measurement": "t1/2,β", "setting": "[1]; sc", "value": 36.7, "unit": "days"}, {"measurement": "AUCinf", "setting": "[2]", "value": "800 ± 323", "unit": "nM-hr"}, {"measurement": "Cmax", "setting": "[2]", "value": 0.81, "unit": "nM"}, {"measurement": "Dose adjusted: Cmax, 0", "setting": "[2]", "value": "0.18 nM/(μmol/kg)"}, {"measurement": "k × 10^4 ± SE", "setting": "[2]", "value": "9.5 ± 1.0", "unit": "h^−1"}, {"measurement": "t1/2", "setting": "[2]", "value": 30.4, "unit": "days"}, {"measurement": "control of blood glucose", "setting": "[3]", "value": "effective at controlling blood glucose for at least one month"}, {"measurement": "half-life of first-order release of free peptide", "setting": "[4]", "value": 0.688, "unit": "days"}, {"measurement": "t1/2", "setting": "[5]", "value": 31.7, "unit": "days"}]}]}
